Results: patent publication US20170096485A1 (Hoffmann-La Roche, published 2017)
Changes are numbered by the printed parent chain. Read-outs that look alike come from different tables or passages of the source.

Columns and labels:
human mesothelin [1] = molecular target: T1, human mesothelin (human, UniProt Q13421 296-580); assay: cell-based or functional assay
human mesothelin [2] = molecular target: T1, human mesothelin; assay: cell-based or functional assay; remark: listed apart in the source
human mesothelin [3] = molecular target: T1, human mesothelin; assay: cell-based or functional assay; remark: listed apart in the source
human mesothelin [4] = molecular target: T1, human mesothelin; assay: cell-based or functional assay; remark: listed apart in the source
human mesothelin [5] = molecular target: T1, human mesothelin; assay: cell-based or functional assay; remark: listed apart in the source
human mesothelin [6] = molecular target: T1, human mesothelin; assay: cell-based or functional assay; remark: listed apart in the source
human mesothelin [7] = molecular target: T1, human mesothelin; assay: cell-based or functional assay; remark: listed apart in the source
human CD3 = molecular target: T2, human CD3 (human, UniProt P07766 23-207); assay: flow cytometry on Jurkat cells, 3.8 pM-300 nM
T2 construct: also called CD3 epsilon
Description: (§1) Briefly, Jurkat suspension cells were harvested, counted and checked for viability. Adherent AsPC-1 cells were harvested using Cell Dissociation Buffer (Gibco, #13151014), counted, checked for viability, and re-suspended at 0.9×10⁶ cells/ml in FACS buffer (100 μl PBS 0.1% BSA). […] Cells were re-incubated for further 30 min at 4° C. with the 1:100 pre-diluted AlexaFluor 647—F(ab′)₂ Fragment Goat Anti-Human IgG, Fey fragment specific secondary antibody (Jackson Immuno Research Lab, […] #109-096-008) and thereafter washed twice with cold PBS 0.1% BSA.
(§2) The stained cells were re-suspended in 100 μl 2% paraformaldehyde-containing FACS Buffer and incubated for 30 min at room temperature to fix the staining. Finally cells were centrifuged for 4 min at 350×g and 4° C., the supernatants were discarded and the cell pellets re-suspended in 200 μl FACS Buffer. Staining was analyzed by FACS using a FACS Canto II (Software FACS Diva). Binding curves and EC50 values were obtained using GraphPadPrism6 (FIG. 8A, binding to Jurkat cells, FIG. 8B binding to AsPC-1 cells).

human mesothelin [8] = molecular target: T1, human mesothelin; assay: flow cytometry on CHO cells transiently transfected to express human MSLN
cynomolgus mesothelin = molecular target: T3, cynomolgus mesothelin (cynomolgus); assay: flow cytometry on CHO cells transiently transfected to express cynomolgus MSLN
T3 construct: whole, on cells; also called cynomolgus MSLN

human mesothelin [9] = molecular target: T1, human mesothelin; assay: flow cytometry on MSLN-expressing AsPC-1 cells, 3.8 pM-300 nM, fit with GraphPad Prism6
Description: as §1, §2

T1 sequence (Q13421 296-588): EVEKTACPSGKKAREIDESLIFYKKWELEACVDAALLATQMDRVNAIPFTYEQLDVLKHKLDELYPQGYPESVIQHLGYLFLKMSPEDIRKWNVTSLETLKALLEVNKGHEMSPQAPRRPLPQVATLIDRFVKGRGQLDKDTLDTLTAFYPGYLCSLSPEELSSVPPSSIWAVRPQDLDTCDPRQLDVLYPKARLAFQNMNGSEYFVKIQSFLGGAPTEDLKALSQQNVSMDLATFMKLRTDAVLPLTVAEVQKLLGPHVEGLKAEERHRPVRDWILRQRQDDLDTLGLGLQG
T2 sequence (P07766 23-207 limits assumed): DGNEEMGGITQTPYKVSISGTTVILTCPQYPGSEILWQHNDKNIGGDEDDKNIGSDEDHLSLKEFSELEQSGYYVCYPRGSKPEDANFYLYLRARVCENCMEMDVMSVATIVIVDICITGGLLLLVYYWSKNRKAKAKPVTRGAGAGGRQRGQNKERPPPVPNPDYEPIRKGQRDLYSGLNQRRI

B1: MSLN TCB molecule A: '2+1 IgG CrossFab, inverted' with charge modifications (VH/VL exchange in CD3 binder, charge modification in mesothelin binders) (bispecific antibody)
heavy 1: QVQLVQSGAEVKKPGASVKVSCKASGYSFTGYTMNWVRQAPGQGLEWMGLITPYNGASSYNQKFRGKATMTVDTSTSTVYMELSSLRSEDTAVYYCARGGYDGRGFDYWGQGTLVTVSSASTKGPSVFPLAPSSKSTSGGTAALGCLVEDYFPEPVTVSWNSGALTSGVHTFPAVLQSSGLYSLSSVVTVPSSSLGTQTYICNVNHKPSNTKVDEKVEPKSCDKTHTCPPCPAPEAAGGPSVFLFPPKPKDTLMISRTPEVTCVVVDVSHEDPEVKFNWYVDGVEVHNAKTKPREEQYNSTYRVVSVLTVLHQDWLNGKEYKCKVSNKALGAPIEKTISKAKGQPREPQVCTLPPSRDELTKNQVSLSCAVKGFYPSDIAVEWESNGQPENNYKTTPPVLDSDGSFFLVSKLTVDKSRWQQGNVFSCSVMHEALHNHYTQKSLSLSP
heavy 2: not shown
light 1: EVQLLESGGGLVQPGGSLRLSCAASGFTFSTYAMNWVRQAPGKGLEWVSRIRSKYNNYATYYADSVKGRFTISRDDSKNTLYLQMNSLRAEDTAVYYCVRHGNFGNSYVSWFAYWGQGTLVTVSSASVAAPSVFIFPPSDEQLKSGTASVVCLLNNFYPREAKVQWKVDNALQSGNSQESVTEQDSKDSTYSLSSTLTLSKADYEKHKVYACEVTHQGLSSPVTKSFNRGEC
light 2: DIQMTQSPSSLSASVGDRVTITCSASSSVSYMHWYQQKSGKAPKLLIYDTSKLASGVPSRFSGSGSGTDFTLTISSLQPEDFATYYCQQWSKHPLTFGQGTKLEIKRTVAAPSVFIFPPSDRKLKSGTASVVCLLNNFYPREAKVQWKVDNALQSGNSQESVTEQDSKDSTYSLSSTLTLSKADYEKHKVYACEVTHQGLSSPVTKSFNRGEC
EC50 of T-cell mediated killing of AsPC-1 cells, 24 h (LDH release, human PBMCs, E:T 10:1) (human mesothelin [1]): 0.308 nM | EC50 of T-cell mediated killing of AsPC-1 cells, 48 h (LDH release, human PBMCs, E:T 10:1) (human mesothelin [1]): 0.1 nM | EC50 of T-cell mediated killing of BxPC-3 cells, 24 h (LDH release, human PBMCs, E:T 10:1) (human mesothelin [1]): 0.0552 nM | EC50 of T-cell mediated killing of BxPC-3 cells, 48 h (LDH release, human PBMCs, E:T 10:1) (human mesothelin [1]): 0.0195 nM | EC50 of T-cell mediated killing of NCI-H596 cells, 24 h (LDH release, human PBMCs, E:T 10:1) (human mesothelin [1]): 0.1 nM | EC50 of T-cell mediated killing of NCI-H596 cells, 48 h (LDH release, human PBMCs, E:T 10:1) (human mesothelin [1]): 0.143 nM | EC50 of T-cell mediated lysis of AsPC-1 cells, 48 h (LDH release) (human mesothelin [2]): 0.0762 nM | EC50 of T-cell mediated lysis of BxPC-3 cells, 48 h (LDH release) (human mesothelin [2]): 0.0881 nM | EC50 of T-cell mediated lysis of NCI-H596 cells, 24 h (LDH release) (human mesothelin [2]): 0.0251 nM | EC50 of T-cell mediated lysis of NCI-H596 cells, 48 h (LDH release) (human mesothelin [2]): 0.0971 nM | EC50 of T-cell mediated lysis of AsPC-1 cells, 48 h (LDH release) (human mesothelin [3]): 0.146 nM | EC50 of T-cell mediated lysis of BxPC-3 cells, 48 h (LDH release) (human mesothelin [3]): 0.0577 nM | EC50 of T-cell mediated lysis of NCI-H596 cells, 48 h (LDH release) (human mesothelin [3]): 0.149 nM | EC50 of T-cell mediated lysis of AsPC-1 cells, 48 h (LDH release) (human mesothelin [4]): ~0.498 nM | EC50 of T-cell mediated lysis of BxPC-3 cells, 48 h (LDH release) (human mesothelin [4]): 0.258 nM | EC50 of T-cell mediated lysis of NCI-H596 cells, 48 h (LDH release) (human mesothelin [4]): 0.313 nM | EC50 of CD69 up-regulation on CD4 T cells (% CD4+CD69+), AsPC-1 target cells, 72 h (FACS) (human mesothelin [5]): 0.131 nM | EC50 of CD69 up-regulation on CD4 T cells (% CD4+CD69+), BxPC-3 target cells, 72 h (FACS) (human mesothelin [5]): 0.00752 nM | EC50 of CD69 up-regulation on CD4 T cells (% CD4+CD69+), NCI-H596 target cells, 72 h (FACS) (human mesothelin [5]): 0.0352 nM | EC50 of CD69 up-regulation on CD8 T cells (% CD8+CD69+), AsPC-1 target cells, 72 h (FACS) (human mesothelin [5]): 0.0936 nM | EC50 of CD69 up-regulation on CD8 T cells (% CD8+CD69+), BxPC-3 target cells, 72 h (FACS) (human mesothelin [5]): 0.0307 nM | EC50 of CD69 up-regulation on CD8 T cells (% CD8+CD69+), NCI-H596 target cells, 72 h (FACS) (human mesothelin [5]): 0.0476 nM | EC50 of CD69 up-regulation on CD4 T cells (% CD4+CD69+), AsPC-1 target cells, 48 h (FACS) (human mesothelin [6]): 0.174 nM | EC50 of CD69 up-regulation on CD4 T cells (% CD4+CD69+), BxPC-3 target cells, 48 h (FACS) (human mesothelin [6]): 0.0774 nM | EC50 of CD69 up-regulation on CD4 T cells (% CD4+CD69+), NCI-H596 target cells, 48 h (FACS) (human mesothelin [6]): 0.0412 nM | EC50 of CD69 up-regulation on CD8 T cells (% CD8+CD69+), AsPC-1 target cells, 48 h (FACS) (human mesothelin [6]): 0.137 nM | EC50 of CD69 up-regulation on CD8 T cells (% CD8+CD69+), BxPC-3 target cells, 48 h (FACS) (human mesothelin [6]): 0.0977 nM | EC50 of CD69 up-regulation on CD8 T cells (% CD8+CD69+), NCI-H596 target cells, 48 h (FACS) (human mesothelin [6]): 0.0783 nM | EC50 of CD69 up-regulation on CD4 T cells (% CD4+CD69+), AsPC-1 target cells (FACS) (human mesothelin [7]): 0.513 nM | EC50 of CD69 up-regulation on CD4 T cells (% CD4+CD69+), BxPC-3 target cells (FACS) (human mesothelin [7]): 0.0598 nM | EC50 of CD69 up-regulation on CD4 T cells (% CD4+CD69+), NCI-H596 target cells (FACS) (human mesothelin [7]): 0.0774 nM | EC50 of CD69 up-regulation on CD8 T cells (% CD8+CD69+), AsPC-1 target cells (FACS) (human mesothelin [7]): 0.546 nM | EC50 of CD69 up-regulation on CD8 T cells (% CD8+CD69+), BxPC-3 target cells (FACS) (human mesothelin [7]): ~0.118 nM | EC50 of CD69 up-regulation on CD8 T cells (% CD8+CD69+), NCI-H596 target cells (FACS) (human mesothelin [7]): 0.145 nM | binding result (human CD3): binds | EC50 (human mesothelin [8]): 7.76 nM | EC50 (cynomolgus mesothelin): 5.5 nM | EC50 (human mesothelin [9]): 1.44 nM

B2: MSLN TCB molecule C: '2+1 IgG CrossFab, inverted' without charge modifications (VH/VL exchange in CD3 binder) (bispecific antibody)
light: B1 light 1
chain 1: B1 heavy 1 with E149K, E215K
chain 2: not shown
chain 3: B1 light 2 with R122E, K123Q
EC50 (human mesothelin [9]): 0.828 nM

B3: MSLN TCB molecule E: '1+1 IgG CrossFab, inverted' with charge modifications (bispecific antibody)
heavy: not shown
light 1: B1 light 1
light 2: B1 light 2
chain: DKTHTCPPCPAPEAAGGPSVFLFPPKPKDTLMISRTPEVTCVVVDVSHEDPEVKFNWYVDGVEVHNAKTKPREEQYNSTYRVVSVLTVLHQDWLNGKEYKCKVSNKALGAPIEKTISKAKGQPREPQVCTLPPSRDELTKNQVSLSCAVKGFYPSDIAVEWESNGQPENNYKTTPPVLDSDGSFFLVSKLTVDKSRWQQGNVFSCSVMHEALHNHYTQKSLSLSP
EC50 of T-cell mediated lysis of AsPC-1 cells, 48 h (LDH release) (human mesothelin [3]): 0.145 nM | EC50 of T-cell mediated lysis of BxPC-3 cells, 48 h (LDH release) (human mesothelin [3]): 0.115 nM | EC50 of T-cell mediated lysis of NCI-H596 cells, 48 h (LDH release) (human mesothelin [3]): 0.182 nM | EC50 of CD69 up-regulation on CD4 T cells (% CD4+CD69+), AsPC-1 target cells, 48 h (FACS) (human mesothelin [6]): 0.167 nM | EC50 of CD69 up-regulation on CD4 T cells (% CD4+CD69+), BxPC-3 target cells, 48 h (FACS) (human mesothelin [6]): ~0.0939 nM | EC50 of CD69 up-regulation on CD4 T cells (% CD4+CD69+), NCI-H596 target cells, 48 h (FACS) (human mesothelin [6]): 0.0388 nM | EC50 of CD69 up-regulation on CD8 T cells (% CD8+CD69+), AsPC-1 target cells, 48 h (FACS) (human mesothelin [6]): 0.146 nM | EC50 of CD69 up-regulation on CD8 T cells (% CD8+CD69+), BxPC-3 target cells, 48 h (FACS) (human mesothelin [6]): ~0.0952 nM | EC50 of CD69 up-regulation on CD8 T cells (% CD8+CD69+), NCI-H596 target cells, 48 h (FACS) (human mesothelin [6]): 0.0609 nM | EC50 (human mesothelin [9]): 1.79 nM

B4: MSLN TCB molecule F: '1+1 IgG CrossMab' with charge modifications (bispecific antibody)
heavy 1: B1 heavy 1
heavy 2: not shown
light 1: B1 light 1
light 2: B1 light 2
EC50 of T-cell mediated lysis of AsPC-1 cells, 48 h (LDH release) (human mesothelin [3]): 0.37 nM | EC50 of T-cell mediated lysis of NCI-H596 cells, 48 h (LDH release) (human mesothelin [3]): 0.319 nM | EC50 of CD69 up-regulation on CD4 T cells (% CD4+CD69+), AsPC-1 target cells, 48 h (FACS) (human mesothelin [6]): 0.299 nM | EC50 of CD69 up-regulation on CD4 T cells (% CD4+CD69+), BxPC-3 target cells, 48 h (FACS) (human mesothelin [6]): ~0.0958 nM | EC50 of CD69 up-regulation on CD4 T cells (% CD4+CD69+), NCI-H596 target cells, 48 h (FACS) (human mesothelin [6]): 0.0454 nM | EC50 of CD69 up-regulation on CD8 T cells (% CD8+CD69+), AsPC-1 target cells, 48 h (FACS) (human mesothelin [6]): 0.118 nM | EC50 of CD69 up-regulation on CD8 T cells (% CD8+CD69+), BxPC-3 target cells, 48 h (FACS) (human mesothelin [6]): 0.479 nM | EC50 of CD69 up-regulation on CD8 T cells (% CD8+CD69+), NCI-H596 target cells, 48 h (FACS) (human mesothelin [6]): 0.0532 nM | binding result (human CD3): binds | EC50 (human mesothelin [9]): 4.59 nM
